Publication PMC10238197, “Deafness‐Associated ADGRV1 Mutation Impairs USH2A Stability through Improper Phosphorylation of WHRN and WDSUB1 Recruitment” (Advanced Science, 2023)

B1: Flag-WHRN (wild type) [mouse] / Myc-USH2A (usherin, aa 4819-5193) [mouse] (parent complex)
chain 1: MNAQLDGLSVSSSSTGSLGSAAAAAGGGGGAGLRLLSANVRQLHQALTALLSEPEREQFTHCLNAYHARRNVFDLVRTLRVLLDSPVKRRLLPMLRLVIPRSDQLLFDQYTAEGLYLPATTPYRQPAWAAPDGAGPGEVRLVSLRRAKAHEGLGFSIRGGSEHGVGIYVSLVEPGSLAEKEGLRVGDQILRVNDKSLARVTHAEAVKALKGSKKLVLSVYSAGRIPGGYVTNHIYTWVDPQGRSTSPPSSLPQPHGSTLRQREDDRRSTLHLLQSGDEKKVNLVLGDGRSLGLTIRGGAEYGLGIYITGVDPGSEAESSGLKVGDQILEVNGRSFLNILHDEAVKLLKSSRHLILTVKDVGRLPHARTTVDQTKWIASSRIGESVANSAGFPGDHTEEGTSKPGFYKGPAGSQVTLSSLGNQTRALLDDQARHLLTEQERATMMYYLAQYRGGTISVEAMVMALFELLNTHAKFSLLSEVRSIISPQDLDRFDHLVLRREIESMKARQPPGPGVGDTYSMVSYSDTGSSTGSHGTSTTVSSARERLLWLIDLMENTLDLEGTGETTQGSTNALPDVSVDDVKSPSEDLPGIKPPPPPPPLAQGHDRLLGQPRKPGREDPAPLSSAAHSGIVFSAPRNRSPPPGTAPTPGPSSAQDSPSSPIYASISHANPSSRKPLDTHLALVNQHPIGPFPRVQSPPHLKSPPAETPGAGACLPPPSPSEHPDAVGANQHFVLVEVHRPDSEPDVNEVRALPQTRTASTLSQLSDSGQTLSEDSGVDAGETEASTSGRGRQTASAKNKNGKEQPRTERTAEGANKPPGLLEPTSTLVRVRKSAATLGIAIEGGANTRQPLPRIVTIQRGGSAHNCGQLKVGHVILEVNGQTLRGKEHKEAARIIAEAFKTKERDYIDFLVTEFNVML
chain 2: PPSGLSPPQVQTLGSRMASVHWTPPLLPNGVIHSYELQLQRACPPDSAPRCPPSHTERKYWGPGHRASLAGLQPNTAYGVQVVAYNEAGSTASGWTNFSTKKEMPQYQALFSVDSNASMVWVDWSGTFLLNGHLKEYVVTDGGRRVYSGLDTTLYIPRMVDKIFFFQVTCTTDIGSVKTPLVQYDAATGSGLVLTTPGEKKGAGTKSTEFYSELWFIMVMAVVGLILLAIFLSLILQRKIHKEPCIRERPPLVPLQKRMTPLSVYPPGETHVGLADTRLPRSGTPMSIRSSQSVSVLRIPSQSQLSHAYSQSSLHRSVSQLMDMADKKVVTEDSLWETIMGHSSGLYVDEEELMNAIKGFSSVTKEHTAFTDTHL

Variants of: B1
Assay: co-immunoprecipitation (band intensity quantified); HEK293 cells; n = 3; parent: 1; read off a plot

Ratio to parent, ~1:
chain 1 S37E
chain 1 S156E
chain 1 S246E
chain 1 S384E
chain 1 S85E
